We go through one substance from patent US20210169980A1.

The target of the experiment is GABARAP (human) (UniProt O95166). The experiment can be described thus: ITC, GABARAP titrated into the peptide. (In general: Isothermal titration calorimetry measures the heat released or taken up as one component is titrated into another.)
Sequence of GABARAP (human) (O95166 whole entry): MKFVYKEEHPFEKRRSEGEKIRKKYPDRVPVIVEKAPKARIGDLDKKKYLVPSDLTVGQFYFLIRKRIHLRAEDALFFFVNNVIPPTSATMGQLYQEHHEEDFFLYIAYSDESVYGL

FAM134B LIR-L E462R (peptide) displayed a Kd of 633 nM.

One may read the Kd as the concentration at which binding is half-saturated. Low readings indicate tighter binding, high ones weaker binding.
